Source: paper PMC2745200 (Biochimie, 2009)

Target: the molecule itself
Assay: SEC

B1: human ω-amidase/Nit2 (nitrilase-like protein 2) (enzyme, UniProt Q9NQR4 1-276, looked up)
chain: MTSFRLALIQLQISSIKSDNVTRACSFIREAATQGAKIVSLPECFNSPYGAKYFPEYAEKIPGESTQKLSEVAKECSIYLIGGSIPEEDAGKLYNTCAVFGPDGTLLAKYRKIHLFDIDVPGKITFQESKTLSPGDSFSTFDTPYCRVGLGICYDMRFAELAQIYAQRGCQLLVYPGAFNLTTGPAHWELLQRSRAVDNQVYVATASPARDDKASYVAWGHSTVVNPWGEVLAKAGTEEAIVYSDIDLKKLAEIRQQIPVFRQKRSDLYAVEMKKP
stoichiometry N: 2
